Test results from patent US20150353951A1, “SYNTHETIC GLYPHOSATE-RESISTANT GENE AND USE THEREOF” (priority 2012, published 2015).
Several values for one entry are separate records, joined by “and”; a condition that tells them apart may be missing. Equal entries are not always repeated. Entries after “also recorded” stand apart in the source; their conditions may differ.

Experiments:
G2-aroA protein = experiment: Double-antibody sandwich ELISA detection of G2-aroA protein expression in transgenic maize leaves; assay type: in vivo; conditions: for G2-aroA protein concentration: T6 generation transgenic maize, five-leaf stage, leaf fresh weight, single plants 1-4; for expression amount of G2-aroA protein in per gram (fresh weight) of leaf plate: transgenic maize
Procedure: The sample extracting solution: 25 mM of Tris-Cl (pH8.0), 10 mM of KCl, 20 mM of MgCl2.6H2O, 1 mM of DTT, 1 mM of PMSF (added before using).
Taking T6 generation transgenic maize plants (including plants transformed with the mG2-aroA gene and plants transformed with G2-aroA gene) at the same growth state (five-leaf stage), and taking about 1 g (fresh weight) of each function leaf (top-three leaves) plates, then grinding in liquid nitrogen. Transferring into 10 ml of centrifugal tube, into which 3 ml of sample extracting solution was added, and shaking strongly. Then centrifugalizing for 1 h at 4° C. The supernatant was taken as a sample to be detected and stand by service. Since the transformed genes are different, there are two samples to be detected, that is, a sample derived from mG2-aroA transgenic plants (sample to be detected is mG2-aroA) and a sample derived from G2-aroA transgenic plants (sample to be detected is G2-aroA). At the same time, the T6 generation maize plants transformed with pS3300-UG0 blank vector and the non-transgenic maize plants were used as controls.
The weight weighting when the leaf plates were ground in liquid nitrogen into powder samples and added into centrifugal tube containing the extracting solution subtracts that weighting before adding sample into centrifugal tube containing the extracting solution to obtain the fresh weight described above.
(1) Coating: the primary antibody (rabbit antibody) with concentration of 1.5 mg/ml (preparation method, see last part of this specification) against G2-aroA protein was diluted in coating buffer. And then after dilution added into ELIAS plate with a volume ratio of 1:1000 between polyclonal antibody against G2-aroA protein and coating buffer, 100 μL per well, and coating overnight in wet box at 4° C. […]
In another aspect, the sample to be detected prepared in step 1 was diluted with sample buffer in a ratio of 1:5, and then 100 μL of diluted sample was added to each well. […]
(9) Measurement: the OD value was measured at 405 nm.
(10) Plotting the standard curve: the standard solution concentration of G2-aroA protein of various of concentration (ng/mL) was plotted on X axis, and the OD value of G2-aroA protein standard measured in step (9) was plotted on Y axis, then the standard curve was plotted by EXCEL.
(11) The OD value of sample to be detected measured in step (9) was used in standard curve equation obtained in step (10) to calculate the content of G2-aroA protein in sample to be detected.
The content of G2-aroA protein in fresh weight=the content of G2-aroA protein of sample to be detected×the volume of sample to be detected/fresh weight of the sample, unit: μg/g. […]

[1] = system: T6 generation transgenic maize plants; experiment: Detection of herbicide (Roundup/glyphosate) resistance of transgenic maize plants in field; assay type: in vivo; conditions: for phytotoxicity after Roundup treatment: 800 ml/mu Roundup (41% glyphosate) at 5-6 leaf age; for phytotoxicity response at late stage of plants growth: 800 ml/mu Roundup at 5-6 leaf age
Procedure: 1. the experimental materials: T6 generation transgenic maize plants, including plants transformed with mG2-aroA gene, plants transformed with G2-aroA gene, and plants transformed with pS3300-UG0 blank vector. At the same time, the non-transgenic maize plants were used as a control.
2. experiment design: 5M of row length, 3 row plots, 3 times of repeat, density: 60×35 cm
3. experiment treatment: applying Roundup (containing 41% of glyphosate, recommbinated applying amount in field is 150-250 ml/mu) in an amount of 800 ml/mu.
4. the experiment treatment timing: 5-6 leaf age. The experimental result was observed 7 days later.

Molecule	G2-aroA protein concentration (G2-aroA protein)	expression amount of G2-aroA protein in per gram (fresh weight) of leaf plate (G2-aroA protein)	phytotoxicity after Roundup treatment [1]	phytotoxicity response at late stage of plants growth [1]
mG2-aroA: codons optimized glyphosate-resistant gene, SEQ ID NO. 2, encoding G2-aroA protein; tested as T6 transgenic maize (nucleic acid) DNA: ATGGCGTGCCTCCCTGACGATTCTGGTCCGCATGTCGGACACTCCACTCCACCTCGCCTGGACCAGGAGCCCTGTACCTTGTCGTCCCAGAAGACGGTTACGGTGACGCCACCCAACTTCCCGTTGACTGGGAAGGTCGCTCCACCTGGCTCCAAGTCTATCACCAACCGTGCACTGTTGCTGGCTGCGTTGGCCAAAGGGACCAGTCGGTTGAGCGGTGCGCTCAAGTCGGATGACACTCGCCACATGTCGGTGGCTCTGAGGCAGATGGGTGTCACGATCGACGAACCGGATGACACGACCTTCGTGGTCACGAGCCAAGGCAGCCTCCAGCTGCCAGCCCAACCGTTGTTCCTCGGCAATGCTGGCACCGCTATGCGCTTCCTCACGGCTGCGGTGGCCACCGTCCAAGGCACGGTCGTTCTGGATGGCGATGAGTACATGCAGAAGCGTCCCATCGGACCCTTGCTGGCGACGCTTGGACAGAACGGCATCCAAGTGGATTCTCCCACCGGTTGCCCACCCGTCACCGTGCACGGCATGGGCAAGGTCCAAGCGAAGCGGTTCGAGATCGACGGTGGGCTCTCCTCCCAGTACGTCTCAGCCCTGCTCATGCTCGCTGCGTGTGGCGAGGCACCGATCGAGGTTGCGCTCACAGGCAAGGACATCGGTGCCAGAGGGTACGTGGACCTGACCCTCGACTGCATGAGAGCCTTTGGAGCACAGGTTGACGCAGTGGACGACACGACCTGGAGGGTCGCTCCCACAGGGTACACCGCTCATGACTATCTCATCGAACCCGACGCCAGCGCTGCGACGTACTTGTGGGCAGCCGAGGTCCTGACCGGTGGCAGGATTGATATTGGCGTTGCTGCGCAGGACTTCACCCAACCGGACGCCAAGGCTCAAGCCGTGATTGCGCAGTTCCCTAACATGCAAGCCACCGTGGTTGGCTCCCAGATGCAGGACGCGATCCCGACCCTGGCTGTCCTCGCAGCCTTCAACAATACTCCCGTGCGCTTCACTGAGCTTGCCAACCTTAGGGTCAAGGAGTGCGATCGCGTGCAAGCCCTGCACGATGGGCTCAACGAGATCAGGCCAGGCCTCGCCACCATCGAGGGAGACGACCTGCTCGTGGCCAGCGACCCAGCGCTTGCAGGGACAGCCTGCACAGCCCTGATCGACACCCACGCTGACCATCGCATCGCGATGTGCTTTGCCCTGGCTGGCCTTAAGGTCTCAGGCATTCGCATTCAGGACCCTGACTGCGTGGCCAAGACCTACCCTGACTACTGGAAGGCTCTTGCCAGCCTTGGCGTTCACCTCAACGACTGATGA	3.304 µg/g and 2.977 µg/g and 4.321 µg/g and 4.339 µg/g	up to 15.057 μg	phytotoxicity was not obvious, they grew normally	no phytotoxicity response
G2-aroA: initial prokaryote glyphosate-resistant gene, SEQ ID NO. 1; tested as T6 transgenic maize (nucleic acid) DNA: ATGGCGTGTTTGCCTGATGATTCGGGTCCGCATGTCGGCCACTCCACGCCACCTCGCCTTGACCAGGAGCCTTGTACCTTGAGTTCGCAGAAAACCGTGACCGTTACACCGCCCAACTTCCCCCTCACTGGCAAGGTCGCGCCCCCCGGCTCCAAATCCATTACCAACCGTGCGCTGTTGCTGGCGGCATTGGCCAAGGGCACCAGCCGTTTGAGCGGTGCGCTCAAAAGCGATGACACGCGCCACATGTCGGTCGCCCTGCGGCAGATGGGCGTCACCATCGACGAGCCGGACGACACCACCTTTGTGGTCACCAGCCAAGGCTCGCTGCAATTGCCGGCCCAGCCGTTGTTCCTCGGCAACGCTGGCACCGCCATGCGCTTTCTCACGGCTGCCGTGGCCACCGTGCAAGGCACCGTGGTACTGGACGGCGACGAGTACATGCAAAAACGCCCGATTGGCCCGCTGCTGGCTACCCTGGGCCAGAACGGCATCCAGGTCGACAGCCCCACCGGTTGCCCACCGGTCACCGTGCACGGCATGGGCAAGGTCCAGGCCAAGCGTTTCGAGATTGATGGTGGTTTGTCCAGCCAGTACGTATCGGCCCTGCTGATGCTCGCGGCGTGCGGCGAAGCGCCGATTGAAGTGGCGCTGACCGGCAAGGATATCGGTGCCCGTGGCTACGTGGACCTGACCCTCGACTGCATGCGTGCCTTCGGGGCCCAGGTGGACGCCGTGGACGACACCACCTGGCGCGTCGCCCCCACCGGCTATACCGCCCATGATTACCTGATCGAACCCGATGCGTCCGCCGCCACGTATTTGTGGGCCGCAGAAGTGCTGACCGGTGGGCGTATCGACATCGGCGTAGCCGCGCAGGACTTCACCCAGCCCGACGCCAAGGCCCAGGCCGTGATTGCGCAGTTCCCGAACATGCAAGCCACGGTGGTAGGCTCGCAAATGCAGGATGCGATCCCGACCCTGGCGGTGCTCGCCGCGTTCAACAACACCCCGGTGCGTTTCACTGAACTGGCGAACCTGCGCGTCAAGGAATGTGACCGCGTGCAGGCGCTGCACGATGGCCTCAACGAAATTCGCCCGGGCCTGGCGACCATCGAGGGCGATGACCTGCTGGTCGCCAGCGACCCGGCCCTGGCAGGCACCGCCTGCACCGCACTGATCGACACCCACGCCGACCATCGCATCGCCATGTGCTTTGCCCTGGCCGGGCTTAAAGTCTCGGGCATTCGCATTCAAGACCCGGACTGCGTGGCCAAGACCTACCCTGACTACTGGAAAGCCCTGGCCAGCCTGGGCGTTCACCTAAACGACTGA	10.671 µg/g and 20.227 µg/g and 14.237 µg/g and 15.096 µg/g	3.735 µg	very serious phytotoxicity, and all plants showed yellowing, abnormalities; also recorded: phytotoxicity was very serious, plants all show yellowing, abnormalities	most of plants showed that the tassels did not differentiate, and ears did not silk or plants were short
